Results on two molecules are retold here after article PMC6160918, “Stabilization of the CD81 Large Extracellular Loop with De Novo Disulfide Bonds Improves Its Amenability for Peptide Grafting” (Pharmaceutics, 2018).

Series [1] has as its target T1, wild-type human CD81 large extracellular loop (human), P60033.
T1 chain: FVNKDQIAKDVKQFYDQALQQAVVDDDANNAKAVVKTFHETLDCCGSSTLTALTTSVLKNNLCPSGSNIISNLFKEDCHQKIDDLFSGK
Put plainly: SEC-MALS; Superdex 200 Increase 10/300 GL, PBS with 200 mM NaCl, 0.75 mL/min, 200 µg of protein at about 2 mg/mL loaded; in-line MALS (miniDAWN TREOS II). The settings on record: remark: other sources report otherwise.

Series [2] concerns the molecule itself. Put plainly: not stated; prescreening of mutants expressed in HEK293-6E at a 2-mL scale; how the dimer was seen is not told.

B1: wild-type human CD81 large extracellular loop, P60033 113-201 (domain or fragment)
chain: FVNKDQIAKDVKQFYDQALQQAVVDDDANNAKAVVKTFHETLDCCGSSTLTALTTSVLKNNLCPSGSNIISNLFKEDCHQKIDDLFSGK
Broadly, the stoichiometry N is the number of molecules, sites or subunits per partner or assembly. Consider B1, for which, in series [1], the stoichiometry N came to 2.

B2: hCD81 LEL variant C10 (Val169Cys/Leu174Cys) (domain or fragment, human, UniProt P60033 113-201, looked up)
chain: FVNKDQIAKDVKQFYDQALQQAVVDDDANNAKAVVKTFHETLDCCGSSTLTALTTSCLKNNCCPSGSNIISNLFKEDCHQKIDDLFSGK
notes: human CD81, large extracellular loop, fragment Phe113-Lys201; numbering according to PDB entry 1G8Q; Excluded from further analysis because of the dimer it formed; the dimer may be a disulfide-linked one (surmise); source: HEK293-6E, transfected, 2-mL scale (prescreening)
With B2, the “stoichiometry N” value in series [2] came to 2.
